We go through 1 molecule from patent US20240294636A1 (YALE UNIVERSITY, published 2024).

For the assay, the target named is T1, mouse Unc5B (mouse, UniProt Q8K1S3 27-945).
T1 construct: whole, on cells; Endogenous protein; also called Uncoordinated 5B
Nature of the assay: immunoprecipitation from mouse brain endothelial Bend.3 cells with the named antibody, western blot of the precipitate for Unc5B and Claudin5. (A western blot detects proteins with antibodies after separation by electrophoresis.)

T1 sequence (Q8K1S3 27-945): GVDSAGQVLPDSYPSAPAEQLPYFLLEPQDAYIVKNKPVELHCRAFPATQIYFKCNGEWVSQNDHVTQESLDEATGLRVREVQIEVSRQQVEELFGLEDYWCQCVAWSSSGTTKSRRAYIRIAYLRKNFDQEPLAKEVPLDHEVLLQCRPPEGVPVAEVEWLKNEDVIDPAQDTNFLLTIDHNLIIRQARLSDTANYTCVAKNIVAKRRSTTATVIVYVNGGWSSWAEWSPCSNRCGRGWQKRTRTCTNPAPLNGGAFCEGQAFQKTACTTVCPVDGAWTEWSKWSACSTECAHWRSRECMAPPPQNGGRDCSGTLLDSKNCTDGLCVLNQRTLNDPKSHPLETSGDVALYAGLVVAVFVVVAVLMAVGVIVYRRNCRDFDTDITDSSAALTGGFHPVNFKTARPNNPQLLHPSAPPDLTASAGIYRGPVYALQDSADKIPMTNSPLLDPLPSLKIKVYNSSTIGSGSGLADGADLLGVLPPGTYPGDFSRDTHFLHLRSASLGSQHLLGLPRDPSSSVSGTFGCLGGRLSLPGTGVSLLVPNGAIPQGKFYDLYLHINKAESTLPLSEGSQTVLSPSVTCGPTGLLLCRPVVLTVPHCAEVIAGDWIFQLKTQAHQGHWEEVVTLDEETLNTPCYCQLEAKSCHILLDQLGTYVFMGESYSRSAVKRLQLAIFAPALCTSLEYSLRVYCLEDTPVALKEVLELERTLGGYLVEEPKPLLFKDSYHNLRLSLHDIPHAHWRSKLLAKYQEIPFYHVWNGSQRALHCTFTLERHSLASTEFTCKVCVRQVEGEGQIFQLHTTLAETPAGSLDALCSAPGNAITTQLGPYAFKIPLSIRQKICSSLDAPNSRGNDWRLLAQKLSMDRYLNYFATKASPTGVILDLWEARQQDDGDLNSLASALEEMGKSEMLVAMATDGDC

B1: anti-Unc5B antibody 1103 (antibody, V domains shown)
VH: EVQLVESGGGLVQPGGSLRLSCAASGFNISYYSIHWVRQAPGKGLEWVASIYSSSGYTSYADSVKGRFTISADTSKNTAYLQMNSLRAEDTAVYYCARGYGLDYWGQGTLVTVSS
VL: DIQMTQSPSSLSASVGDRVTITCRASQSVSSAVAWYQQKPGKAPKLLIYSASSLYSGVPSRFSGSRSGTDFTLTISSLQPEDFATYYCQQHYSYPITFGQGTKVEIKR
notes: also called anti-Unc5B-3
As for B1, the binding result is “binds”.
